Tests used:
[1] = molecular target: T1, Lrp5 (endogenous, in mouse kidney) (mouse, UniProt Q91VN0 31-1614); test: Western blot for S-tag proteins in whole d5 post I/R kidney from mice treated with Dkk2-C2
T1 construct: whole, on cells; Endogenous receptor in whole d5 post I/R kidney; The complex was detected in kidney lysate by Western blot; also called Lipoprotein receptor like protein 5
Protocol: (§1) For detection of Dkk2-C2, western blots of 50μg of whole kidney protein lysate per lane were incubated with anti-S-tag antibodies (1:500, BD Biosciences) followed by secondary HRP conjugated antibodies. After detection and stripping blots were re-detected with anti-beta-actin (1:1000, Santa Cruz Biotechnology). The purified recombinant Dkk2C contained only one single band in SDS-PAGE.
(§2) This C2 recombinant form of Dkk2 was administered from d0 to WT mice that were uninjured or which had kidney injury. Kidneys were harvested on day 2 and day 7 after injury and assessed quantitatively for injury. […] After detection and stripping blots were re-detected with anti-beta-actin (1:1000, Santa Cruz Biotechnology). […] When systemic delivery of Dkk2 was delayed until after peak injury at d1, it was nevertheless detectable in the kidney (FIG. 5G) and it retained the capacity to improve kidney function as assessed by plasma creatinine levels (FIG. 5D). […] To understand whether Dkk2 was functioning to augment the canonical pathway, Wnt signalling in kidney cortex of d5 post I/R mice was assessed by detection of phosphorylated Lrp6 since canonical signalling requires phosphorylation of this co-receptor (Zeng et al., Nature 438(7069):873-877 (in eng) (2005)) (FIG. 5E). pLrp6 was not detected in healthy adult kidney cortex (FIG. 1G) but was robustly detected in kidney cortex following injury.

[2] = molecular target: T2, Lrp6 (endogenous, in mouse kidney) (mouse, UniProt O88572 20-1613); test: as above
T2 construct: whole, on cells; Endogenous receptor in whole d5 post I/R kidney or kidney cortex; also called Lipoprotein receptor like protein 6
T2 sequence (O88572 20-1613): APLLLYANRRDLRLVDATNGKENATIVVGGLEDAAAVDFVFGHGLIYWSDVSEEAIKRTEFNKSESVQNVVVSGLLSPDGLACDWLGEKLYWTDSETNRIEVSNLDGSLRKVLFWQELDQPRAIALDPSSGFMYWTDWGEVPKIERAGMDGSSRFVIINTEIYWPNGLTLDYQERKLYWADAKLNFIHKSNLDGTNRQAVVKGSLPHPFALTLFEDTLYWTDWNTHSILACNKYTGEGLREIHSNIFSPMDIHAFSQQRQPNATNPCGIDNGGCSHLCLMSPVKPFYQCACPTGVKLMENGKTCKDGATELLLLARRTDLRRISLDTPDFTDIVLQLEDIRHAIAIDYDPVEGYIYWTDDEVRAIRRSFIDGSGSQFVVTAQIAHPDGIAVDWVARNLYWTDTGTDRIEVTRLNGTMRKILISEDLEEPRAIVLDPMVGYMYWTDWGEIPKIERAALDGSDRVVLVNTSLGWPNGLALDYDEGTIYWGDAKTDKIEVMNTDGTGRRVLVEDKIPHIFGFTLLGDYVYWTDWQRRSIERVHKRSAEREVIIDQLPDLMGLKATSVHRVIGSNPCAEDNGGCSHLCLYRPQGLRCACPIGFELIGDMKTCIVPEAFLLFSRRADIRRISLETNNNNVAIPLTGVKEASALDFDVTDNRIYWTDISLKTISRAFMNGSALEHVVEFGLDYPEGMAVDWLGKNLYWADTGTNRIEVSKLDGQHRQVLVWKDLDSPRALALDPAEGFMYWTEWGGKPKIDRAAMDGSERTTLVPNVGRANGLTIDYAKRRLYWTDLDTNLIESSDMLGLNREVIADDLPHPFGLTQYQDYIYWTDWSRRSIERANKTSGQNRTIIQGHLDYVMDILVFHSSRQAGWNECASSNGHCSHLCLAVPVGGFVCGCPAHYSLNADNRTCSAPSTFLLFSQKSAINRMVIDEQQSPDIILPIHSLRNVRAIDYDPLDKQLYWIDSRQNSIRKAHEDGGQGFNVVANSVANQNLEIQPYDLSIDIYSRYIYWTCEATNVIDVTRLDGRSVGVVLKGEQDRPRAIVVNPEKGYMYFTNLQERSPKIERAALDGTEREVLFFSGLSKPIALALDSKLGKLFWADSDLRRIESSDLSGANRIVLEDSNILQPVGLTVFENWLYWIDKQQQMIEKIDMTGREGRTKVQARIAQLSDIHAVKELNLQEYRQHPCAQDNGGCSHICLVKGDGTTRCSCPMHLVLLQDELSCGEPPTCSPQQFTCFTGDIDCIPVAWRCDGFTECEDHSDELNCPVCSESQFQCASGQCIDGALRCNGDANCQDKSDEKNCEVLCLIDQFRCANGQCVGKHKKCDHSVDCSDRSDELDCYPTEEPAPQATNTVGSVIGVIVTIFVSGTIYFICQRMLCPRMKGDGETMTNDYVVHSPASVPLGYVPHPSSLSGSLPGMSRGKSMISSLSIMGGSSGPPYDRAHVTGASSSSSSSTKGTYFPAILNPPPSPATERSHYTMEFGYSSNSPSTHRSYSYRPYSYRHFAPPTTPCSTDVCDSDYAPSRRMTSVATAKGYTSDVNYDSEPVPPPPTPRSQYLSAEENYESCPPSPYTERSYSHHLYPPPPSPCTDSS
Protocol: as §1, §2

T1 sequence (Q91VN0 31-1614): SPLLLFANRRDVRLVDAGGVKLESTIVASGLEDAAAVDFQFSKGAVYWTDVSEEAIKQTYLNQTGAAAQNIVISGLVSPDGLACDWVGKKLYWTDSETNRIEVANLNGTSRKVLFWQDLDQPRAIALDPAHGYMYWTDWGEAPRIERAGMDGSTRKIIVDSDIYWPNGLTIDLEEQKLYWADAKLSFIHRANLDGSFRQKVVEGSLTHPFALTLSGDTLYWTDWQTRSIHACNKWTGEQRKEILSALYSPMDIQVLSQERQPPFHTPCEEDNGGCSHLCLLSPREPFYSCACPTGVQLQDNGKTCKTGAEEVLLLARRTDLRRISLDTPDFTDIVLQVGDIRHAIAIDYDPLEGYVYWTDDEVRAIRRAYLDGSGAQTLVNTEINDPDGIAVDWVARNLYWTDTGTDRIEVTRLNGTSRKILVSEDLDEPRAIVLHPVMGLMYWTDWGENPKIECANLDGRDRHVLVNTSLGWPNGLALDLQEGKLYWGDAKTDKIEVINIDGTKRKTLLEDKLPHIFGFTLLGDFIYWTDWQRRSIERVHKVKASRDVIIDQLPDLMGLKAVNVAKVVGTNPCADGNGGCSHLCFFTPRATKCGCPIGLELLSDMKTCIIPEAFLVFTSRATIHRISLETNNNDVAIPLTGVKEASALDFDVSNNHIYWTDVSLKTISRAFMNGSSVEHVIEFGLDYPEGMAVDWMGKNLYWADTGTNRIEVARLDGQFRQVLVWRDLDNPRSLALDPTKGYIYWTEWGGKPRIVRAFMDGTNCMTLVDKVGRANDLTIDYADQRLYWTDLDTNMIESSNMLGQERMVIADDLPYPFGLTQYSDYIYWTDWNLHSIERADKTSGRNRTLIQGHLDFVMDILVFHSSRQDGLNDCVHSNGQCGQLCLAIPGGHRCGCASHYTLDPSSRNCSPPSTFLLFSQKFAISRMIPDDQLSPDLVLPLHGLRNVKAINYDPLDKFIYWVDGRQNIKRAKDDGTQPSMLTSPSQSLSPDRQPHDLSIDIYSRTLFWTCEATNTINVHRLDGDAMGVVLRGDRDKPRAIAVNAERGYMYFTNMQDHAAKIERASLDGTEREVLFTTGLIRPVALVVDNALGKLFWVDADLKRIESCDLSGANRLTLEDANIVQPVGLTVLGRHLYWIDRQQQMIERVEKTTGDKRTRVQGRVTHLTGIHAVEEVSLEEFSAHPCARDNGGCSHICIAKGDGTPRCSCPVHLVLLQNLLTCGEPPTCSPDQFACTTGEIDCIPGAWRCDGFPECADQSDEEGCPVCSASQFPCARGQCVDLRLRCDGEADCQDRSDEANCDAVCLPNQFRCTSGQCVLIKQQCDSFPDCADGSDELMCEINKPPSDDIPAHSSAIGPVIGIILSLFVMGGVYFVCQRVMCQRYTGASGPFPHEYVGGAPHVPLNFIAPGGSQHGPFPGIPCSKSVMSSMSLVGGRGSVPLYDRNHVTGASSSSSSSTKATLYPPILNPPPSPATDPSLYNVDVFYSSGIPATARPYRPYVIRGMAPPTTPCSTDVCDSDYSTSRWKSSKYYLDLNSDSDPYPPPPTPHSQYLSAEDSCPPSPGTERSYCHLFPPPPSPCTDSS

B1: recombinant protein Dkk2C (amino acids Met172-Ile259 of mouse Dkk2) with N-terminal S tag and thrombin cleavage site (ligand)
chain: MPHIKGHEGDPCLRSSDCIDGFCCARHFWTKICKPVLHQGEVCTKQRKKGSHGLEIFQRCDCAKGLSCKVWKDATYSSKARLHVCQKI
notes: Expressed in E. coli; Detected in kidney lysate with anti-S-tag antibodies, so the S tag was still on the protein; also called Dkk2-C2; D2C2; not shown: N-terminal S tag; thrombin cleavage site between the S tag and Dkk2C
B1: binds [1]; binds [2].
